# Source: patent publication US9469841B2, “Prodrug activation in cancer cells using molecular switches” (The Johns Hopkins University, priority 2008, dated 2016)
# Like-named read-outs stand apart in the source and are kept apart here.
# How the values were obtained:
# MBP317-347 = assay: Effect of beta-cyclodextrin on maltose activation of switch MBP317-347; assay type: biochemical
# Protocol: The rate of beta-lactam hydrolysis as a function of maltose (dots) follows the maltose-binding isotherm (blue). […] Initially, in the absence of any ligand, the rate of beta-lactam hydrolysis catalyzed by the switch is low. At about 5 minutes, maltose is added and the enzyme activity of the switch is turned on. At about 10 minutes, an excess of beta-cyclodextrin is added. This replaces maltose in the binding site and turns the enzyme activity of the switch off. At about 16 minutes, an excess of maltose is added which replaces beta-cyclodextrin and turns the enzyme activity of the switch back on.
# Natural allosteric proteins often have modest (<10-fold) differences in function between the effector-bound and effector-unbound states. However very large differences in activity between the two states would be advantageous for many applications of protein switches. […] Using an iterative strategy involving random circular permutation and random insertion several switches were created that approach being on/off in nature (6). […] The creation of these switches was facilitated by a new directed evolution algorithm for non-homologous recombination that was developed for efficiently exploring the sequence space comprised of the possible fusions of the two proteins. […]
# HIF-1a = HIF-1a (Homo sapiens, UniProt Q16665); conditions: cited from earlier work
# Chain of HIF-1a (Q16665 786-826 limits assumed): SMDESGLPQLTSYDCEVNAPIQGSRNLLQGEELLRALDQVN
# Chain of HIF-1a (Q09472 331-417 partner limits assumed): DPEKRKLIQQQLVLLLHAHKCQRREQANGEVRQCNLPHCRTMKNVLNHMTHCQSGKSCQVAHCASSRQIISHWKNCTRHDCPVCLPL
# E. coli cells = assay: MIC of ampicillin for E. coli cells expressing switch, with and without maltose; assay type: cell-based; conditions: E. coli cells expressing MBP or BLA separately
# GIA39 E. coli cells = assay: Growth on "negative selection" minimal plates supplemented with 5FC; assay type: cell-based; design: key: + = growth; − = no growth
# Protocol: Minimal media was used in the selection schemes and was based on a product mixture described by Sigma. For 1 L it containing 20 g of Select Agar (Sigma# A5054), 6.7 g of Yeast nitrogen base without amino acids (Sigma #Y0626), 1.92 g of Yeast synthetic drop-out without uracil (Sigma #Y1501), glucose to 2%, 1 mM IPTG and 50 μg/mL of chloramphenicol. For “negative” selection media, the above media was supplemented with 75 μg/mL or 25 μg/mL of 5FC and 1 μg/mL of uracil. For “positive” selection media, supplementation was with 25 μg/mL of cytosine, 1 mM arabinose and 100 μg/mL of ampicillin Each Bio-Assay dish contained 250 mL of selection media and each standard Petri dish contained 25 mL of media.
# The selection scheme was developed to isolate library members whose CD activity is “off” in the absence of HIF-1a but “on” in the presence of HIF-1a. […] A GST-HIF-1a fusion was created that is under the control of the arabinose promoter on a plasmid that can coexist with the pDIM-C8 library plasmids. This “HIF-1a plasmid” is a variation of the pGEX plasmid and has ampicillin resistance. During selections, this HIF-1a plasmid will either be present to produce HIF-1a and activate the hybrid protein switches, or absent to avoid any production of HIF-1a.
# During the negative selection, no HIF-1a plasmid was present in the cells. Thus, hybrids that are active in the absence of HIF-1a will convert the 5FC into 5FU and kill the cell. But, hybrids that are not active in the absence of HIF-1a will be able to use the minimal amount of uracil provided and grow to form colonies. The negative selection was performed twice in succession using the Bio-Assay dish size plates (2 plates each time with about 600,000 cells plated on each plate). The first time the negative selection media contained 75 μg/mL 5FC. The colonies that grew on this plated were recovered and then underwent a second negative selection to help ensure that any pDIM-C8 plasmids encoding a wild-type yCD were removed from the library. The second negative selection was performed the same as the first except that 25 μg/mL of 5FC was used. The cells that survived the second negative selection were harvested and then aliquoted. One aliquot was used to isolate library plasmids that were used in the positive selection that followed.
# This experiment confirmed that the switch genes conferred sensitivity to 5FC depends on induction of expression of HIF1-a (see Table 2, below).
# Cells harboring the switch genes in pDIM-C8 or cells with the same plasmid together with the HIF1-a plasmid were plated on minimal media plates supplemented with 5FC (i.e. the negative selection conditions). […]
molecule,measurement,setting,value
"OC[C@H]1O[C@@H]2O[C@H]3[C@H](O)[C@@H](O)[C@@H](O[C@H]4[C@H](O)[C@@H](O)[C@@H](O[C@H]5[C@H](O)[C@@H](O)[C@@H](O[C@H]6[C@H](O)[C@@H](O)[C@@H](O[C@H]7[C@H](O)[C@@H](O)[C@@H](O[C@H]8[C@H](O)[C@@H](O)[C@@H](O[C@H]1[C@H](O)[C@H]2O)O[C@@H]8CO)O[C@@H]7CO)O[C@@H]6CO)O[C@@H]5CO)O[C@@H]4CO)O[C@@H]3CO [beta-cylcodextrin, beta-cyclodextrin]",Effect on maltose activation of the switch,MBP317-347,antagonist preventing maltose-activation
"CH1 domain: CH1 domain of p300, 100 amino acids, binds HIF-1a",Kd,"HIF-1a; in vitro at 25° C., read-out: dissociation constant of the CH1 domain and HIF-1a",~120 nM
same,Kd,"HIF-1a; minimal domains CH1 and C-TAD of HIF-1a, read-out: Kd",120 nM
"BLA: the enzyme TEM-1 beta-lactamase (protein, UniProt P62593 24-286, looked up) Beta-lactamase TEM: HPETLVKVKDAEDQLGARVGYIELDLNSGKILESFRPEERFPMMSTFKVLLCGAVLSRVDAGQEQLGRRIHYSQNDLVEYSPVTEKHLTDGMTVRELCSAAITMSDNTAANLLLTTIGGPKELTAFLHNMGDHVTRLDRWEPELNEAIPNDERDTTMPAAMATTLRKLLTGELLTLASRQQLIDWMEADKVAGPLLRSALPAGWFIADKSGAGERGSRGIIAALGPDGKPSRIVVIYTTGSQATMDERNRQIAEIGASLIKHW",Effect of maltose on MIC of ampicillin,E. coli cells,not affect by maltose
"yCD: yeast cytosine deaminase containing the A23L/V108I/I140L mutations; positive control (protein, UniProt Q12178 1-158, looked up, variant A23L V108I I140L) Cytosine deaminase: MVTGGMASKWDQKGMDIAYEEALLGYKEGGVPIGGCLINNKDGSVLGRGHNMRFQKGSATLHGEISTLENCGRLEGKVYKDTTLYTTLSPCDMCTGAIIMYGIPRCVIGENVNFKSKGEKYLQTRGHEVVVVDDERCKKLMKQFIDERPQDWFEDIGE","Growth on ""negative selection"" minimal plates supplemented with 75 μg/ml 5FC","GIA39 E. coli cells; w/ HIF1-a plasmid, 1 mM arabinose",−
same,"Growth on ""negative selection"" minimal plates supplemented with 75 μg/ml 5FC","GIA39 E. coli cells; w/ HIF1-a plasmid, No arabinose",−
same,"Growth on ""negative selection"" minimal plates supplemented with 75 μg/ml 5FC","GIA39 E. coli cells; w/o HIF1-a plasmid, 1 mM arabinose",−
same,"Growth on ""negative selection"" minimal plates supplemented with 75 μg/ml 5FC","GIA39 E. coli cells; w/o HIF1-a plasmid, No arabinose",−
